Assay results reported in PMC5055493, “The PilZ domain of MrkH represents a novel DNA binding motif” (Protein & Cell, 2016).

Experiments:
[1] = molecular target: T1, MrkH (tag removed) (Klebsiella pneumoniae) (UniProt G3FT00); assay: fluorescence polarization; details: EMSA: 50 mM Tris pH 8.0, 100 mM NaCl, 5 mM MgCl2, 20 ul, 100 min on ice; FP: 10 nM FAM-DNA, 25 C, buffer not fully given. Fig. 2G Kd values (High, 10.3, High …)
T1 sequence: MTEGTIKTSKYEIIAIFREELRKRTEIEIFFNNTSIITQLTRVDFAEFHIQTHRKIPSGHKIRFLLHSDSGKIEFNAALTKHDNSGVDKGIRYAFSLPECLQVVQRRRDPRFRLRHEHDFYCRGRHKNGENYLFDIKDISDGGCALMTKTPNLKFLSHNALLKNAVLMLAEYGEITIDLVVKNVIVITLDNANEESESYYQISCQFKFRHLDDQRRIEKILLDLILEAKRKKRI

MrkH = molecular target: T2, MrkH (Klebsiella pneumoniae, UniProt G3FT00); assay: ITC; type: binding
T2 construct: full-length MrkH, YcgR-N plus PilZ domains; monomer; recombinant

MrkH^105-end = molecular target: T3, MrkH^105-end (Klebsiella pneumoniae, UniProt G3FT00); assay: ITC; type: binding
T3 construct: PilZ domain with interdomain linker, residues 105-end
Text: ITC on MrkH^105-end | MrkH^105-end also binds to c-di-GMP efficiently

[2] = molecular target: T4, MBP-MrkH (Klebsiella pneumoniae) (UniProt G3FT00); assay: EMSA; details: EMSA: 50 mM Tris pH 8.0, 100 mM NaCl, 5 mM MgCl2, 20 ul, 100 min on ice; FP: 10 nM FAM-DNA, 25 C, buffer not fully given. Fig. 2G Kd values (High, 10.3, High …)
T4 sequence: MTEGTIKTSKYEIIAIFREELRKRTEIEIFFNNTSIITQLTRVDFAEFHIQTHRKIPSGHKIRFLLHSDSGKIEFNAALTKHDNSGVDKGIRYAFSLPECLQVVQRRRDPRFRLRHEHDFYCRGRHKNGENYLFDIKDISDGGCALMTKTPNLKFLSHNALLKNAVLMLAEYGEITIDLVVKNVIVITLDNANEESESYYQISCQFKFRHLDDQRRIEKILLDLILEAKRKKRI

[3] = molecular target: T5, MBP-MrkH-PilZ domain (Klebsiella pneumoniae) (UniProt G3FT00); assay: EMSA; details: EMSA: 50 mM Tris pH 8.0, 100 mM NaCl, 5 mM MgCl2, 20 ul, 100 min on ice; FP: 10 nM FAM-DNA, 25 C, buffer not fully given. Fig. 2G Kd values (High, 10.3, High …)
T5 sequence: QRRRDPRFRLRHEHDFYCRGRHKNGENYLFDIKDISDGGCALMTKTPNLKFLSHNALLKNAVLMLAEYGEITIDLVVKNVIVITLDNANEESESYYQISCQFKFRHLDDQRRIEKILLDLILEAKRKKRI

MrkH (tag removed) [4] = molecular target: T6, MrkH (tag removed) (Klebsiella pneumoniae, UniProt G3FT00 1-234); assay: fluorescence polarization; no c-di-GMP; EMSA: 50 mM Tris pH 8.0, 100 mM NaCl, 5 mM MgCl2, 20 ul, 100 min on ice; FP: 10 nM FAM-DNA, 25 C, buffer not fully given. Fig. 2G Kd values (High, 10.3, High, 7.5, 24.3, 10.6, 12.7, High) cannot be assigned to mutants. PilZ mutants of Fig. S3B (all lose mrkA binding in EMSA) are not individually named in the material; details: protein: recombinant; tags: none (tag removed for FP); label: 5'-FAM; blunt
MrkH K154A = MrkH K154A (Klebsiella pneumoniae, UniProt G3FT00 1-234, K154A); assay: fluorescence polarization; little effect of mutation; EMSA: 50 mM Tris pH 8.0, 100 mM NaCl, 5 mM MgCl2, 20 ul, 100 min on ice; FP: 10 nM FAM-DNA, 25 C, buffer not fully given. Fig. 2G Kd values (High, 10.3, High, 7.5, 24.3, 10.6, 12.7, High) cannot be assigned to mutants. PilZ mutants of Fig. S3B (all lose mrkA binding in EMSA) are not individually named in the material; details: protein: recombinant; tags: none; label: 5'-FAM; blunt
MrkH K89A = MrkH K89A (Klebsiella pneumoniae, UniProt G3FT00 1-234, K89A); assay: as above; details: protein: recombinant; tags: none; label: 5'-FAM; blunt
MrkH K207A = MrkH K207A (Klebsiella pneumoniae, UniProt G3FT00 1-234, K207A); assay: as above; details: protein: recombinant; tags: none; label: 5'-FAM; blunt
MrkH K163A = MrkH K163A (Klebsiella pneumoniae, UniProt G3FT00 1-234, K163A); assay: as above; details: protein: recombinant; tags: none; label: 5'-FAM; blunt
MrkH (tag removed) [5] = molecular target: T6, MrkH (tag removed); assay: fluorescence polarization; EMSA: 50 mM Tris pH 8.0, 100 mM NaCl, 5 mM MgCl2, 20 ul, 100 min on ice; FP: 10 nM FAM-DNA, 25 C, buffer not fully given. Fig. 2G Kd values (High, 10.3, High, 7.5, 24.3, 10.6, 12.7, High) cannot be assigned to mutants. PilZ mutants of Fig. S3B (all lose mrkA binding in EMSA) are not individually named in the material; details: protein: recombinant; tags: none (tag removed for FP); label: 5'-FAM; blunt

## GCTGCGCTGTAAACAACCACCCTCGCGTTTTCATCTATCAATGGCTGTTTATTAATAGTCGATGGTTATCTGTTATATAACTTAATGAAACGTGAACAAATGTATATTTGTCGGCGAATAAATAGCATTCTTTGACGCCGATAGCACCAGCGAACTTATATTTTTAGGTTCGTTACCTGACGCCTTAAATATTGCGGCTCCCGGTCAGTCGAAGATTCTATTAGCAGTGGCATAAATCAGCATCGCCTGATGTTTCTGGTTCTATGCGAATTCACAGTGTGCT (double strand) [PmrkA -117 to +166 (FAM)]
[1]
  Kd: 3.07 µM

## Nc1nc2c(ncn2[C@@H]2O[C@@H]3CO[P@](=O)(O)O[C@H]4[C@@H](O)[C@H](n5cnc6c(=O)[nH]c(N)nc65)O[C@@H]4CO[P@](=O)(O)O[C@H]3[C@H]2O)c(=O)[nH]1 [c-di-GMP]
MrkH
  Kd: ~0.24 µM
MrkH^105-end
  Kd: 0.45 ± 0.1 µM

## ACTTAAGTTTTTATCCTTCGACCGGTCTCCAGCTTGGAGGCCGTTGTCGTTTTTGTCATGACCAAAATTCGAAACTCTTGATTACAGGAAATACAATATCAAATTCCAAGTTTATACATATCAATCTGGCTGCAAAGATAGTCAATAACATCAAACGCTCATAAAAACATCTGATTAACCCAATCAGAATGTTGCTATTGCTATAAGAAAAATCAAACGCCTCACGACAACTATTTACAAGGGATGCAT (double strand) [mrkHI promoter 250 bp]
[2]
  binding: binds
[3]
  binding: binds

B1: PmrkA -117 to -37 (FAM) (dsDNA)
DNA 1: GCTGCGCTGTAAACAACCACCCTCGCGTTTTCATCTATCAATGGCTGTTTATTAATAGTCGATGGTTATCTGTTATATAA
DNA 2: TTATATAACAGATAACCATCGACTATTAATAAACAGCCATTGATAGATGAAAACGCGAGGGTGGTTGTTTACAGCGCAGC
MrkH (tag removed) [4]
  Kd: 8.24 ± 2.23 µM
MrkH K154A
  binding result: binds
MrkH K89A
  binding result: binds
MrkH K207A
  binding result: binds
MrkH K163A
  binding result: binds

B2: 80 bp random sequence (FAM) (dsDNA)
DNA 1: ATAAATAGCATTCTTTGACGCCGATAGCACCAGCGAACTTATATTTTTAGGTTCGTTACCTGACGCCTTAAATATTGCGG
DNA 2: CCGCAATATTTAAGGCGTCAGGTAACGAACCTAAAAATATAAGTTCGCTGGTGCTATCGGCGTCAAAGAATGCTATTTAT
MrkH (tag removed) [5]
  Kd: 7.45 ± 2.81 µM
